Laboratory results taken from patent US20050208585A1 (published 2005).

T1: human c-mpl (thrombopoietin receptor) on HU-03 cells and human platelets (human, UniProt P40238 26-635)
T1 sequence (looked up): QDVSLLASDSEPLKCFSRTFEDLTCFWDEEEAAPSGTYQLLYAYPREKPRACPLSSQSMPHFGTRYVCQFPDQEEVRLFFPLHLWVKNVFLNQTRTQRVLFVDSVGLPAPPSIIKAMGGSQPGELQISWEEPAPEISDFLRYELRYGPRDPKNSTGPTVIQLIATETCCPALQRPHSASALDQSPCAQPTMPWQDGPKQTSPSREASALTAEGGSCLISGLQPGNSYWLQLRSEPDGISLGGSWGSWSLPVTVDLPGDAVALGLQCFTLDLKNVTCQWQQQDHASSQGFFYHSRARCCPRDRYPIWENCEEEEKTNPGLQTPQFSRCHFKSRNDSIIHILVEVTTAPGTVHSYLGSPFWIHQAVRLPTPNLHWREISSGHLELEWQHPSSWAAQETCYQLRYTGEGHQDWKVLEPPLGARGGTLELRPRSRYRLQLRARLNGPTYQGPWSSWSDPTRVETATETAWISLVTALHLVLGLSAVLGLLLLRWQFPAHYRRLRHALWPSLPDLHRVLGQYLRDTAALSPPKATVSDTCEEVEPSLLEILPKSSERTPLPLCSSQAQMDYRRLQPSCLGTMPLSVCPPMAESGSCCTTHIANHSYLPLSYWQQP

T2: mpl-Ig (UniProt P40238 26-491)
T2 construct: From conditioned media of mpl-Ig-transfected 293 cells, captured on rabbit anti-human IgG Fc; also called mpl-IgG; not shown: Ig part, captured by anti-human IgG Fc
T2 sequence (looked up): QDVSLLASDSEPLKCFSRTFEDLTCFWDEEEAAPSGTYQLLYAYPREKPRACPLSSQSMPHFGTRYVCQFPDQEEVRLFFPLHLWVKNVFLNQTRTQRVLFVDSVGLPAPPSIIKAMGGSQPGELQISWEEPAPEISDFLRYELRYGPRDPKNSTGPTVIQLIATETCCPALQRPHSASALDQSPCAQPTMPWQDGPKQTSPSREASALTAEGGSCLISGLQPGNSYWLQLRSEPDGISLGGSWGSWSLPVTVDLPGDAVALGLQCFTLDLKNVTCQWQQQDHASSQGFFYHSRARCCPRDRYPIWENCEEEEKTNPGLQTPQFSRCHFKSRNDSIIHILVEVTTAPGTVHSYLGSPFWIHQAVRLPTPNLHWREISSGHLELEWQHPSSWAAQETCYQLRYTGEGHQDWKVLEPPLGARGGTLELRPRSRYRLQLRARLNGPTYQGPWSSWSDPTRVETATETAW


Columns and labels:
[1] = biological target: human c-mpl (thrombopoietin receptor) on HU-03 cells and human platelets (human) (UniProt P40238); test: cell-based or functional assay
[2] = biological target: mpl-Rse.gD chimeric receptor (human, UniProt P40238 26-491); test: cell-based or functional assay
[3] = biological target: human c-mpl (thrombopoietin receptor) on HU-03 cells and human platelets (human) (UniProt P40238); test: competition with 100 pM 125I-TPO for binding to HU-03 cells
[4] = biological target: T1, human c-mpl (thrombopoietin receptor) …; test: cell-based or functional assay
[5] = biological target: T1, human c-mpl (thrombopoietin receptor) …; test: competition with 100 pM 125I-TPO for binding to HU-03 cells
[6] = biological target: T1, human c-mpl (thrombopoietin receptor) …; test: competition with 100 pM 125I-TPO for binding to human platelets
[7] = biological target: T2, mpl-Ig; test: TPO receptor-binding inhibition ELISA: biotinylated TPO on captured mpl-Ig

Row | Binder | Hu3 Proliferation (ED50) [1] [nM] | KIRA (ED50) [2] [nM] | IC50 [3] [nM] | Hu3 Proliferation (ED50) [4] [nM] | IC50 [5] [nM] | IC50 [6] [nM] | IC50 [7] [nM]
1 | 12B5 Fab (Fab, from another filing) scFv: MAQVQLVQSGGGLVRPGGSLSLSCAVSGITLRTYGMHWVRQAPGKGLEWVAGISFDGRSEYYADSVQGRFTISRDSSKNTLYLQMNSLRAEDTAVYYCARGAHYGFDIWGQGTMVTVSSGGGGTGGGGSGGGGSDIQMTQSPSTLSASIGDRVTITCRASEGIYHWLAWYQQKPGKAPKLLIYKASSLASGAPSRFSGSGSGTDFTLTISSLQPDDFATYYCQQYSNYPLTFGGGTELEIKRAA | > 1000 | 3 | 900 | – | – | – | –
2 | 12B5 scFv (scFv) MAQVQLVQSGGGLVRPGGSLSLSCAVSGITLRTYGMHWVRQAPGKGLEWVAGISFDGRSEYYADSVQGRFTISRDSSKNTLYLQMNSLRAEDTAVYYCARGAHYGFDIWGQGTMVTVSSGGGGTGGGGSGGGGSDIQMTQSPSTLSASIGDRVTITCRASEGIYHWLAWYQQKPGKAPKLLIYKASSLASGAPSRFSGSGSGTDFTLTISSLQPDDFATYYCQQYSNYPLTFGGGTELEIKRAA | – | 1 | – | 0.02 | 10 | 100 | 17
3 | 12D5 Fab (Fab, V domains shown) VH: QVQLVESGGGLVKPGGSLRLSCAASGFTFSSHNMNWVRQAPGKGLEWVSSISSSSSYIYYADSVKGRFTISRDNAKNSLYLQMNSLRAEDTAVYYCARDRGSTGMDVWGRGTLVTVSS VL: DIVMTQSPSTLSASIGDRVTITCRASEGIYHWLAWYQQKPGKAPKLLIYKASSLASGAPSRFSGSGSGTDFTLTISSLQPDDFATYYCQQYSNYPLTFGGGTELEIKR | – | 4 | – | – | 500 | – | 1000
4 | 12D5 IgG (antibody, V domains shown) VH: QVQLVESGGGLVKPGGSLRLSCAASGFTFSSHNMNWVRQAPGKGLEWVSSISSSSSYIYYADSVKGRFTISRDNAKNSLYLQMNSLRAEDTAVYYCARDRGSTGMDVWGRGTLVTVSS VL: DIVMTQSPSTLSASIGDRVTITCRASEGIYHWLAWYQQKPGKAPKLLIYKASSLASGAPSRFSGSGSGTDFTLTISSLQPDDFATYYCQQYSNYPLTFGGGTELEIKR | – | 3 | – | – | 10 | 500 | 0.45
5 | 12B5 IgG (antibody, V domains shown) VH: QVQLVQSGGGLVRPGGSLSLSCAVSGITLRTYGMHWVRQAPGKGLEWVAGISFDGRSEYYADSVQGRFTISRDSSKNTLYLQMNSLRAEDTAVYYCARGAHYGFDIWGQGTMVTVSS VL: DIVMTQSPSTLSASIGDRVTITCRASEGIYHWLAWYQQKPGKAPKLLIYKASSLASGAPSRFSGSGSGTDFTLTISSLQPDDFATYYCQQYSNYPLTFGGGTELEIKR | – | – | – | 0.03 | 10 | 300 | 0.152
6 | 12E10 scFv (scFv) MAQVQLQQSGPGLVKPSETLSLTCTVSGDSISSYYWSWIRQPPGKGLEWIGYIYYSGSTNYNPSLKSRVTISVDTSKSQFSLKLSSVTAADTAVYYCARGRYFDVWGRGTMVTVSSGGGGSGGGGSGGGGSSYVLTQPPSVSGSPGQSITISCTGTSSDVGGYNYVSWYQQHPGKAPKLMIYEGSKRPSGVSNRFSGSKSGNTASLTISGLQAEDEADYYCSSYTTRSTRVFGGGTKLTVLGAA | – | – | – | 0.005 | 5 | 5 | 1.6
